Measured values: US12618111

Molecular target: LFA1 receptor on T cells (human) (UniProt P20701)
Test: cell-based or functional assay

Chain of UniProt P20701 (P20701 26-1170, chain 1 of 2): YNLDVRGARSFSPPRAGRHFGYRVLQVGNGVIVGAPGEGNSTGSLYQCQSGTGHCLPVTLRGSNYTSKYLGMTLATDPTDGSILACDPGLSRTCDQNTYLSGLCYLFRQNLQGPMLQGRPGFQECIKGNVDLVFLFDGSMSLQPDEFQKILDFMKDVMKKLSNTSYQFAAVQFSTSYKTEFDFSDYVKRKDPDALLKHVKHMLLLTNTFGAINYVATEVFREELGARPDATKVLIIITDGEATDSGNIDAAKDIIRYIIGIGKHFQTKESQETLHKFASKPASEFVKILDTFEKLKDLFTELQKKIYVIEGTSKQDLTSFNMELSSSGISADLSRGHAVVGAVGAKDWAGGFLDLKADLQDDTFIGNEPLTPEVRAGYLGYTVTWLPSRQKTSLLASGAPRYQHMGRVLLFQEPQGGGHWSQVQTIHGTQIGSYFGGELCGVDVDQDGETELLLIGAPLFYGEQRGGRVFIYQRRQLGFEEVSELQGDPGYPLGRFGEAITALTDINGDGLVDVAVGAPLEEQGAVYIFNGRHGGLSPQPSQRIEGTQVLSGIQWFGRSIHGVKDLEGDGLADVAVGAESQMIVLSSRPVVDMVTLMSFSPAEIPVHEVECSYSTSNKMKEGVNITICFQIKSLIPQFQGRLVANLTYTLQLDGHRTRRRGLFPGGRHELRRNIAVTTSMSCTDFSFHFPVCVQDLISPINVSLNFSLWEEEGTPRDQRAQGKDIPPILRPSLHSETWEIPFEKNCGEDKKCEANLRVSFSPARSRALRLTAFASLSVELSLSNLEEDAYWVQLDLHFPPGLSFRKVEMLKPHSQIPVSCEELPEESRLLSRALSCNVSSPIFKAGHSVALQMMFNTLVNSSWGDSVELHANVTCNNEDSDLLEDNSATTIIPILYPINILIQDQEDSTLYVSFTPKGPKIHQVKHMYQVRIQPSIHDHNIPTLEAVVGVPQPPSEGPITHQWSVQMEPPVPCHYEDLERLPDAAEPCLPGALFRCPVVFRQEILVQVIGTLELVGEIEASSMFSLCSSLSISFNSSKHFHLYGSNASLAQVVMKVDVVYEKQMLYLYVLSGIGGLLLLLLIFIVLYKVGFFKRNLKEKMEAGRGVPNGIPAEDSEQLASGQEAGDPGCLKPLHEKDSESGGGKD
Chain of UniProt P20701 (P05107 23-769, chain 2 of 2, further chain): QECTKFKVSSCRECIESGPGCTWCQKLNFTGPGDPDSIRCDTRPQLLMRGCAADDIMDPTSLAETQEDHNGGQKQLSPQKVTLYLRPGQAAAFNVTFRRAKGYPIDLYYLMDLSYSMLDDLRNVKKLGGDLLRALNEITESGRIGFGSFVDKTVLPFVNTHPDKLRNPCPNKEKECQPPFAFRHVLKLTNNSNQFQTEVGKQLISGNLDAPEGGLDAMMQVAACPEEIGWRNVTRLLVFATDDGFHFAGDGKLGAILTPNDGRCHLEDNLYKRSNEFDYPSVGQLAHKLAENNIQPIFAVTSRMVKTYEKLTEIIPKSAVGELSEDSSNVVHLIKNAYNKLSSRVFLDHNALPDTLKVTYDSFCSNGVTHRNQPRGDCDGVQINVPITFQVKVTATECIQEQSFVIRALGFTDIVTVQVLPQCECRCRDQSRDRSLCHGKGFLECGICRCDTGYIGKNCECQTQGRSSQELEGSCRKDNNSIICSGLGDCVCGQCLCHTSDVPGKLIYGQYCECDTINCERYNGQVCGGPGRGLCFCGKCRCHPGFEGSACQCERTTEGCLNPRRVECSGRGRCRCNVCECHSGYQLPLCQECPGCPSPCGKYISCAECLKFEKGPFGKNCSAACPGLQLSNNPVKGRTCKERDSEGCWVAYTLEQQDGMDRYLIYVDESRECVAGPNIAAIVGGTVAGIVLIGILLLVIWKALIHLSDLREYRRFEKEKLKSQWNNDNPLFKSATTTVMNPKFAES

IFN-γ secretion (ELISA) by CD4+ T cells stimulated with IL12, IL18 and TL1A after pretreatment with LFA1 blocking antibody, compared to IgG control antibody: 43 % reduction
Substance: anti-LFA1 (TS1/18) monoclonal antibody
